B1: C1orf137 (parent)
chain: LPQETNLTLKVCKPQAPQKLDPTL
B2: PRAME (parent)
chain: KKLKIFAMPMQDIKMILKMVQLDS
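Note: lentivirally expressed fusions sorted by FACS into six bins by GFP to DsRed ratio, PSI derived from sequencing read proportions per bin multiplied by bin number.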

Variants of: B1
Test: protein stability index of a GFP-peptide fusion (GPS, HEK-293T) (PSI 1-6); higher = more stable
Conditions: c terminus: a fixed tail appended
In the case of L1A, the protein stability index is reported as 4.06. For L1N, the protein stability index was 3.77. L1C showed a protein stability index of 4. L1V showed a protein stability index of 4.34. Variant L1Q has a protein stability index of 4.38. For L1K, the protein stability index was 3.93. Variant L1I has a protein stability index of 3.97. With L1H the protein stability index was 3.36. Work on L1F yielded a protein stability index of 2.79. For L1E, the protein stability index was 4.8. L1Y gave a protein stability index of 3.04. L1S showed a protein stability index of 4.46. With L1D the protein stability index was 4.73. For L1M, the protein stability index was 4.04. Work on L1W yielded a protein stability index of 3.98. Work on L1R yielded a protein stability index of 3.48. For L1T, the protein stability index was 4.44. In the case of L1P, the protein stability index is reported as 4.65. Work on Q3S yielded a protein stability index of 3.8. Work on Q3G yielded a protein stability index of 3.63. With Q3L the protein stability index was 3.58. Q3F gave a protein stability index of 3.08. Work on Q3A yielded a protein stability index of 4.3. In the case of Q3R, the protein stability index is reported as 3.29. Work on Q3P yielded a protein stability index of 3.79. Q3K showed a protein stability index of 3.96. Q3V showed a protein stability index of 3.73. With Q3T the protein stability index was 4.17. Q3N showed a protein stability index of 3.53. Q3H gave a protein stability index of 3.6. Variant Q3E has a protein stability index of 4.59. In the case of Q3C, the protein stability index is reported as 4.12. Work on Q3M yielded a protein stability index of 3.6. For Q3I, the protein stability index was 3.1. In the case of Q3D, the protein stability index is reported as 4.33. With P2E the protein stability index was 4.18. For P2H, the protein stability index was 3.5. P2N gave a protein stability index of 3.46. Variant P2V has a protein stability index of 3.13. With P2A the protein stability index was 3.84. With P2S the protein stability index was 2.8. With P2G the protein stability index was 3.79. Variant P2R has a protein stability index of 2.88. Work on P2K yielded a protein stability index of 3.06. P2C gave a protein stability index of 3.27. With P2T the protein stability index was 3.92. For P2M, the protein stability index was 2.23. For P2L, the protein stability index was 2.65. With P2W the protein stability index was 2.16. P2F showed a protein stability index of 2.85. Variant P2D has a protein stability index of 4.3. P2I showed a protein stability index of 3.49. P2Y gave a protein stability index of 3.14. In the case of P2Q, the protein stability index is reported as 3.76.

Variants of: B2
Test: as above
Conditions: c terminus: a fixed tail appended
I16W showed a protein stability index of 2.79. With I16Y the protein stability index was 3.04. Q21A showed a protein stability index of 3.36. Q21E gave a protein stability index of 2.03. In the case of Q21P, the protein stability index is reported as 3.91. In the case of Q21G, the protein stability index is reported as 3.64. With Q21C the protein stability index was 3.19. For Q21T, the protein stability index was 3.42. For Q21K, the protein stability index was 3.17. Work on Q21I yielded a protein stability index of 2.69. Work on Q21M yielded a protein stability index of 2.33. In the case of Q21W, the protein stability index is reported as 1.98. Variant Q21N has a protein stability index of 2.82. With V20T the protein stability index was 3.9. Variant V20N has a protein stability index of 2.32. V20P showed a protein stability index of 2.22. With V20I the protein stability index was 4.22. Work on V20C yielded a protein stability index of 2.55. V20R gave a protein stability index of 2.37. Variant V20Y has a protein stability index of 2.21. Variant V20S has a protein stability index of 2.01. For V20K, the protein stability index was 4.07. With V20F the protein stability index was 2.98. Variant V20A has a protein stability index of 3.51. Variant V20E has a protein stability index of 2.33. In the case of V20H, the protein stability index is reported as 3.51. Variant V20D has a protein stability index of 2.19. Variant V20Q has a protein stability index of 2.9. Work on L22P yielded a protein stability index of 3.45. Variant L22I has a protein stability index of 3.88. For L22H, the protein stability index was 3.28. For L22R, the protein stability index was 2.83. For L22A, the protein stability index was 1.13. Variant L22M has a protein stability index of 1.42. In the case of L22K, the protein stability index is reported as 1.95. For L22C, the protein stability index was 1.88. Work on L22V yielded a protein stability index of 3.63. In the case of L22D, the protein stability index is reported as 4.71. In the case of L22Y, the protein stability index is reported as 2.57. With L22Q the protein stability index was 2.51. Variant S24V has a protein stability index of 2.5. Variant S24M has a protein stability index of 3.73. For S24I, the protein stability index was 2.49. Variant S24G has a protein stability index of 2.47. S24Q showed a protein stability index of 2.02. In the case of S24E, the protein stability index is reported as 4.07. Variant S24R has a protein stability index of 3.56. S24A gave a protein stability index of 3.45. For S24H, the protein stability index was 2.91. S24D showed a protein stability index of 4.26. In the case of S24P, the protein stability index is reported as 1.9. Variant S24K has a protein stability index of 2.42. For S24N, the protein stability index was 2.87. With S24F the protein stability index was 2.85. For S24T, the protein stability index was 2.39. Work on D23S yielded a protein stability index of 3.79. Work on D23K yielded a protein stability index of 2.4. For D23L, the protein stability index was 3.12. Work on D23N yielded a protein stability index of 2.18. Variant D23W has a protein stability index of 2.58. D23E showed a protein stability index of 3.61. D23M showed a protein stability index of 1.94. D23T gave a protein stability index of 2.86. Work on D23I yielded a protein stability index of 2.33. In the case of D23F, the protein stability index is reported as 3.54. In the case of D23P, the protein stability index is reported as 3.05. K18Q showed a protein stability index of 2.18. K18S showed a protein stability index of 2.19. With K18W the protein stability index was 3.98. For K18R, the protein stability index was 3.54. In the case of K18F, the protein stability index is reported as 3.27. K18D gave a protein stability index of 2.22. K18L gave a protein stability index of 3.04. K18G gave a protein stability index of 3.49. K18E gave a protein stability index of 3.69. In the case of K18A, the protein stability index is reported as 3.37. In the case of K18M, the protein stability index is reported as 2.67. In the case of K18N, the protein stability index is reported as 1.99. K18P gave a protein stability index of 1.56. For K18H, the protein stability index was 2.65. K18V showed a protein stability index of 4.3. Variant K18Y has a protein stability index of 2.62. In the case of K18T, the protein stability index is reported as 2.42. L17D gave a protein stability index of 1.88. L17T gave a protein stability index of 1.12. L17Q gave a protein stability index of 1.62. Variant L17Y has a protein stability index of 3.8. Work on L17H yielded a protein stability index of 2.39. With L17V the protein stability index was 2.64. Work on L17A yielded a protein stability index of 2.66. In the case of L17W, the protein stability index is reported as 2.06. L17N showed a protein stability index of 1.5. Variant L17R has a protein stability index of 1.75. L17K showed a protein stability index of 2.11. L17P showed a protein stability index of 2.27. Work on L17M yielded a protein stability index of 2.59. L17G showed a protein stability index of 1.71. L17C gave a protein stability index of 2.73. For L17S, the protein stability index was 2.1. Variant L17I has a protein stability index of 2.19. L17E gave a protein stability index of 2.04. For M19H, the protein stability index was 2.59. M19C showed a protein stability index of 3.53. Work on M19W yielded a protein stability index of 2.46. For M19Q, the protein stability index was 2.89. With M19N the protein stability index was 2.21. With M19I the protein stability index was 2.81. In the case of M19D, the protein stability index is reported as 2.13. In the case of M19T, the protein stability index is reported as 3.38. Work on M19F yielded a protein stability index of 2.46. Work on M19P yielded a protein stability index of 1.69. For M19G, the protein stability index was 2.15. Work on M19S yielded a protein stability index of 2.44.
